Columns and labels:
t-PA = t-PA (Homo sapiens, UniProt P00750); test: Cleavage of maltose binding protein-QRGRSA-HY4 fusion protein by t-PA (SDS-PAGE); type: biochemical; conditions: 150 nM enzyme, 16 hours at 25 C
Procedure: (§1) The fusion consists of maltose binding protein fused to the amino terminus of the HY4 gene product of Arabidopsis thaliana with a linking region in between coding for the amino acid sequence QRGRSA, which is cleaved by t-PA between R and S. The concentration of fusion protein in each lane is […] and the concentration of u-PA or […] is 150 nM. The reaction buffer contains 50 mM Tris pH 7.5, 0.1 M NaCl, 1 mM EDTA, and 0.01% Tween 20. Reactions were set up in a total volume of […] and allowed to incubate 16 hours at 25 C. and then stopped by the addition of […] of 5× loading buffer and separated by electrophoresis on 12% polyacrylamide. The gel was stained with Coomassie Brilliant Blue 30 minutes and de-stained overnight.

u-PA = target: T1, u-PA (Homo sapiens, UniProt P00749); test: Cleavage of maltose binding protein-QRGRSA-HY4 fusion protein by u-PA (SDS-PAGE); type: biochemical; conditions: 150 nM enzyme, 16 hours at 25 C
T1 construct: purchased Jack Henkin (Abbott Laboratories)
Procedure: as §1

t-PA, sequence (P00750 36-562): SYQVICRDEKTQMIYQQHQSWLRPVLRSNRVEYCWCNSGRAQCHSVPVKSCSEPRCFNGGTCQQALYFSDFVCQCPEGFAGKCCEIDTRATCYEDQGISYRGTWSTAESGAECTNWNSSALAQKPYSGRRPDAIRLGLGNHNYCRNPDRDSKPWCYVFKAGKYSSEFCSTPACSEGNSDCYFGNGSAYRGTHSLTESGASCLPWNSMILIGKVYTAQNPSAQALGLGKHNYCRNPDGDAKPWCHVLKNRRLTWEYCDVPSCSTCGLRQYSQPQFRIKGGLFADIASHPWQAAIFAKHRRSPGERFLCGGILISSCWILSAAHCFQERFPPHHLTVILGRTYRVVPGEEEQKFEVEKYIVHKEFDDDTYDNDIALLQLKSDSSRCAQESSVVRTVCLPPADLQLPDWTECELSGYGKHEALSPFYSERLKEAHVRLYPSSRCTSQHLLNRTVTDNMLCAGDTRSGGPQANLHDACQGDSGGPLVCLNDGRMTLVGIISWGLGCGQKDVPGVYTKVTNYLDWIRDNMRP

cleavage of fusion protein by t-PA (t-PA): readily cleaved
cleavage of fusion protein by u-PA (u-PA): did not
B1: fusion protein: maltose binding protein fused to HY4 gene product of Arabidopsis thaliana with linking region QRGRSA (protein)
chain: QRGRSAMSGSVSGCGSGGCSIVWFRRDLRVEDNPALAAAVRAGPVIALFVWAPEEEGHYHPGRVSRWWLKNSLAQLDSSLRSLGTCLITKRSTDSVASLLDVVKSTGASQIFFNHLYDPLSLVRDHRAKDVLTAQGIAVRSFNADLLYEPWEVTDELGRPFSMFAAFWERCLSMPYDPESPLLPPKKIISGDVSKCVADPLVFEDDSEKGSNALLARAWSPGWSNGDKALTTFINGPLLEYSKNRRKADSATTSFLSPHLHFGEVSVRKVFHLVRIKQVAWANEGNEAGEESVNLFLKSIGLREYSRYISFNHPYSHERPLLGHLKFFPWAVDENYFKAWRQGRTGYPLVDAGMRELWATGWLHDRIRVVVSSFFVKVLQLPWRWGMKYFWDTLLDADLESDALGWQYITGTLPDSREFDRIDNPQFEGYKFDPNGEYVRRWLPELSRLPTDWIHHPWNAPESVLQAAGIELGSNYPLPIVGLDEAKARLHEALSQMWQLEAASRAAIENGSEEGLGDSAEVEEAPIEFPRDITMEETEPTRLNPNRRYEDQMVPSITSSLIRPEEDEESSLNLRNSVGDSRAEVPRNMVNTNQAQQRRAEPASNQVTAMIPEFNIRIVAESTEDSTAESSSSGRRERSGGIVPEWSPGYSEQFPSEENGIGGGSTTSSYLQNHHEILNWRRLSQTG
modifications: left off: large carriers
